{"source": "the RNAGym collection of RNA variant scans (doi:10.1073/pnas.2313332121)", "parents": {"B1": {"name": "TPR t1 (parent)", "chain": "GACCAAUCUGCCCUCAGAGCUCGAGAACAUCUUCGGAUGCAGAGGAGGCAGGCUUCGGUGGCGCGAUAGCGCCAACGUCCUCAACCUCCAAUGCAUCCCACCACAUGAUGAUGCCUGAAGAGCCUUGGUUUUUUG"}}, "data": [{"variants_of": "B1", "assay": "polymerase ribozyme fitness, log enrichment relative to wild type (log ratio); higher = more active; in vitro selection for triplet polymerase activity", "in_short": "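Fitness is a logarithmic measure of how a genotype enriched relative to the wild type, with replicate averages weighted by inverse variance. The logarithm uses base 2, and enrichment came from Illumina sequencing of input and output libraries. Those libraries were PCR-built, transcribed mutants of each subunit of a heterodimeric triplet polymerase ribozyme, passed through one triplicate in vitro selection round that included frozen incubation at −7 °C, gel excision of extended constructs and streptavidin-bead capture. Genotypes were kept only if they had ≥10 input reads and ≥1 read per output.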", "values": [{"variant": "GACCAAUCUGCUCUCAGAGCUCGAGAACAUCUUCGGAUGCAGAGGAGGCAGGCUUCGGUGGCGCGAUAGCGCCAACGUCCUCAACCUCUAAUGCAUCCCCCCACAUGAUGAUGCCUGAAGAGCCUUGGUUUUGUG", "note": "[C12U C89U A100C U133G]", "polymerase ribozyme fitness (log ratio)": -1.42}, {"variant": "GACCAAUCUGCCCUCAGAGCUCGAGAACAUCUUCGGAUGCAGAGGAGGCAGGCUUCGGUGGCGCGAUAGCGCCAACGUCCUCAACCUCCAAUGCAUCCCACCACAUGAUGAUGCCUGAAGAGGCUUGGUUUUUUU", "note": "[C123G G135U]", "polymerase ribozyme fitness (log ratio)": 1.4}, {"variant": "GGCCAAUCUUCCCUCAGAGCUCGAGAACAUCUUCGGAUGCAGAGGAGGCAGGCUUCGGUGGCGCGAUAGCGCCAACGUCCUCAACCUUCAAUGCAUCCCACCACAUGAUGAUGCCUGAUGAGCCUUGGUUUUUUG", "note": "[A2G G10U C88U A119U]", "polymerase ribozyme fitness (log ratio)": -0.34}, {"variant": "GACCAAUCUGCCCUCAGCGCUCGAGAACAUCUUCGGAUUCAGAGGAGGUAGGCUUCGGUGGCGCGAUAGCGCCAACGUCCUCAACCUCCAAUGCAUCCCACCACAUGAUGAUGCCUGAACAGCCUUGGUUUUUUG", "note": "[A18C G39U C49U G120C]", "polymerase ribozyme fitness (log ratio)": -4.35}, {"variant": "GACCAAUCUGCCCUCAGAGCUCGAGAAAAGCUUCGGAUGCAGGGGAGGCAGGCUUCGGUGGCGCGAUAGCGCCAACGUCCUCAACCUCCAAUGCAUCCCACCACAUGAUCAUGCCUGAAGAGCCUUGGUUUUUUG", "note": "[C28A U30G A43G G110C]", "polymerase ribozyme fitness (log ratio)": -6.92}, {"variant": "GACCAAUCUGCCCUCAGAGCUCGAGAACAUCUUCGGAUGCAGUGGAGUCAGGCUUCGGUGACGCGAUAGCGCCAACGUCCUCAACCUCCAAUGCAUCCCACCACAUGAUGAUGCCUGAAGAGCCUUGGUUUUUUG", "note": "[A43U G48U G61A]", "polymerase ribozyme fitness (log ratio)": -1.54}, {"variant": "GACCAAUCUGCCCUCAGAGCUCGAGAACAUCUUCGGAUGCAGAGGAGGCAGGCUUCGGUGGUGCGAUAGCGCCAACGUCCUCAACCUCCAAUGCAUCCCACCACAUGAUGAUGCCCGAAGAGCCUUGGUUUUUUG", "note": "[C62U U116C]", "polymerase ribozyme fitness (log ratio)": -1.06}, {"variant": "GAACAAUCUGCCCUCAGAGCUCGAGAACAUCUUCGGAUGCAGAGGAGGCAGGCUUCGGUGGCGCGAUAGCGCCAACGUCCUCAACCUCCAAUGCAUCCCACCACAUGAUGAUGCAUGAAGAGCCUUGGUUUUUUG", "note": "[C3A C115A]", "polymerase ribozyme fitness (log ratio)": -1.99}, {"variant": "GACCAAUCUCUCCUCAGAGCUCGAGAACAUCUUCGGAUGCAGAGGAGGCAGGCUUCGGUGGCGCGAUAGCGCCAACGUCCUCAACCUCCAAUGCAUCCCACCAAAUGAUGAUGCCUGAAGAGCCUUGGUUUUUUG", "note": "[G10C C11U C104A]", "polymerase ribozyme fitness (log ratio)": -0.93}, {"variant": "GACCAAUCUGCCCUCAGAGCUCGAGAACAUCUUCGGAUGCAGAGGAGGCAGGCUUCGGUGCCGCGAUAGCGCCAACGUCCUCUACCUCCAAUGCAUCCCACCACAUGAUGAUCCCUGAAUAGCCUUGGUUUAUUG", "note": "[G61C A83U G113C G120U U132A]", "polymerase ribozyme fitness (log ratio)": -4.78}, {"variant": "GACCAAUCUGCCCUCAGAGUUCGAGGACAUCUUCGGAUGCAGGGGAGGCAGGGUUCGGUGGAGCGAUAGCGCCAACGUCCUUAACCUCCAAUGCAUCCCACCACAUGAUGAUGCCUGAAGAGCCUUGGUUUUUUG", "note": "[C20U A26G A43G C53G C62A C82U]", "polymerase ribozyme fitness (log ratio)": -5.29}, {"variant": "GACCAAUCUGCCCUCAGAGCUCGAGAACAUCUUCGGAUGCAGAGGAGGCAGUCUUCGGUAGCGCGAUAGCGCCAACGUCCUCAACCUCCAAUGCAUCCCACCACCGGAUGAUGCCUGGAGAGCCUUGGUUUUUUG", "note": "[G52U G60A A105C U106G A118G]", "polymerase ribozyme fitness (log ratio)": -3.93}, {"variant": "GACCAAUCUGCCCUCAGAGCUCGAGAACAUCUUCGGAUGCAGAGGAGGCAGGCUUCGGUGGCGCGAUAGCGCCAACGUCCUCAACCCCCAAUGCAUCCCACCACAUGAUGAUGCCUGAAUAGCCUUGGUUUUUUG", "note": "[U87C G120U]", "polymerase ribozyme fitness (log ratio)": -1.06}, {"variant": "GCCCAAACUGCCCUCAGAGCUCGAGAACAUCUUCGGAUGCAGAGGAGGUAGGCUUCGGUGGCGCGAUAGCGCCAACGUCCUCAACCUCCAAUGCAACCCAACACAUGAUGAUGCCUGAAGAGCCGUGGUUUUUUG", "note": "[A2C U7A C49U U96A C101A U125G]", "polymerase ribozyme fitness (log ratio)": -3.99}, {"variant": "GACCAAUCUUCCCUCAGAGCUCGAGAACAUCUUCGGAUGCAGAGGAGGCAGUCUUCGGUGGCGCGAUAGCGCGAACGUCCUCAACCUCCAAUGCAUCCCACCACAUGAUGAUGCCUGAAGAGCCUUGGUUUUUUG", "note": "[G10U G52U C73G]", "polymerase ribozyme fitness (log ratio)": -0.827}, {"variant": "GACCAAUCUGCCCUCUGAGCUCGAGAACAUCUUCGGAUGCAGAGGAGGCAGGCUUCGGUGGCGCGAUAGCGCCAACGUCCUCAACCUCCAAUACAUCCCACCACAUGAUGAUGCCUGAAGAGCCUUGGUUUUUUG", "note": "[A16U G93A]", "polymerase ribozyme fitness (log ratio)": -2.35}, {"variant": "GACCAAUCUGCCCUCAGAGCUCGAGAACAUCUUCGGAUGCAGAGGAGGCAGGCUUCGGAGGCGCGAUAGCGCCAACGUCCACAACCUCCAAUGCAUCCCACCACAUGAUGAUGCCUGAUGAGCCUUGGUUUUUUG", "note": "[U59A U81A A119U]", "polymerase ribozyme fitness (log ratio)": -0.551}, {"variant": "GACCAAUCUGCCCUCAGAGCUCGAGAACAUCUUCGGAUGCAGAGGAGGCAGGCUUCGGUGGCGCGAUAGCGCCAACGUCCUCAACCUCCAAUGCAUCCUACCACAUGAUGAUGCCUGAAGAGGCUUGGUUUUUUG", "note": "[C99U C123G]", "polymerase ribozyme fitness (log ratio)": -1.13}, {"variant": "GACCAAUCUGACCUCAGAGCUCGAGAACAUCUUCGGAUGCAGAGGAGGCAGGCUUCGGUGGCGCGAUAGCGCCAACGUCCUCAACCUCCAAUGCAUCCCACCACAUGAUGAUGCCUUAAGAGCCUUGGUUUUUUG", "note": "[C11A G117U]", "polymerase ribozyme fitness (log ratio)": -3.48}, {"variant": "GACCAAUCUGCCCUCAGAGCUCGAGAACAUCUUCGGAUGCAGAGGAAGCACGCUUCGGUGGCGCGAUAGCGCCAACCUCUUCAACCCCCAAUGCAUCCCACCACAUGAUGAUGCCUGAAGAGCGUUGGUUGUUUG", "note": "[G47A G51C G77C C80U U87C C124G U131G]", "polymerase ribozyme fitness (log ratio)": -1.89}, {"variant": "GACCAAUCUGCCCUGAGAGCUCGAGAACAUCUUCGGAUGCAGAGGAGGCAGGCUUCGGUGGCGCGAUAGCGCCAACGUCCUCAACCUCCAAUGCAUCCCACCACAGGAUGAUGCCUCAAGAGCCUUGGUUUUUUG", "note": "[C15G U106G G117C]", "polymerase ribozyme fitness (log ratio)": 0.15}]}]}
